# Assay results as given in paper PMC2783309 (Experimental cell research, 2009).
# B1: GST-Src catalytic domain (domain or fragment, UniProt P12931-1 226-536, looked up)
# chain: LQQLVAYYSKHADGLCHRLTTVCPTSKPQTQGLAKDAWEIPRESLRLEVKLGQGCFGEVWMGTWNGTTRVAIKTLKPGTMSPEAFLQEAQVMKKLRHEKLVQLYAVVSEEPIYIVTEYMSKGSLLDFLKGETGKYLRLPQLVDMAAQIASGMAYVERMNYVHRDLRAANILVGENLVCKVADFGLARLIEDNEYTARQGAKFPIKWTAPEAALYGRFTIKSDVWSFGILLTELTTKGRVPYPGMVNREVLDQVERGYRMPCPPECPESLHDLMCQCWRKEPEERPTFEYLQAFLEDYFTSTEPQYQPGENL
# Target: Biotinylated Clostridium difficile toxin A (Clostridium difficile strain VPI 10463, UniProt P16154 1-2710)
# Sequence (P16154 whole entry): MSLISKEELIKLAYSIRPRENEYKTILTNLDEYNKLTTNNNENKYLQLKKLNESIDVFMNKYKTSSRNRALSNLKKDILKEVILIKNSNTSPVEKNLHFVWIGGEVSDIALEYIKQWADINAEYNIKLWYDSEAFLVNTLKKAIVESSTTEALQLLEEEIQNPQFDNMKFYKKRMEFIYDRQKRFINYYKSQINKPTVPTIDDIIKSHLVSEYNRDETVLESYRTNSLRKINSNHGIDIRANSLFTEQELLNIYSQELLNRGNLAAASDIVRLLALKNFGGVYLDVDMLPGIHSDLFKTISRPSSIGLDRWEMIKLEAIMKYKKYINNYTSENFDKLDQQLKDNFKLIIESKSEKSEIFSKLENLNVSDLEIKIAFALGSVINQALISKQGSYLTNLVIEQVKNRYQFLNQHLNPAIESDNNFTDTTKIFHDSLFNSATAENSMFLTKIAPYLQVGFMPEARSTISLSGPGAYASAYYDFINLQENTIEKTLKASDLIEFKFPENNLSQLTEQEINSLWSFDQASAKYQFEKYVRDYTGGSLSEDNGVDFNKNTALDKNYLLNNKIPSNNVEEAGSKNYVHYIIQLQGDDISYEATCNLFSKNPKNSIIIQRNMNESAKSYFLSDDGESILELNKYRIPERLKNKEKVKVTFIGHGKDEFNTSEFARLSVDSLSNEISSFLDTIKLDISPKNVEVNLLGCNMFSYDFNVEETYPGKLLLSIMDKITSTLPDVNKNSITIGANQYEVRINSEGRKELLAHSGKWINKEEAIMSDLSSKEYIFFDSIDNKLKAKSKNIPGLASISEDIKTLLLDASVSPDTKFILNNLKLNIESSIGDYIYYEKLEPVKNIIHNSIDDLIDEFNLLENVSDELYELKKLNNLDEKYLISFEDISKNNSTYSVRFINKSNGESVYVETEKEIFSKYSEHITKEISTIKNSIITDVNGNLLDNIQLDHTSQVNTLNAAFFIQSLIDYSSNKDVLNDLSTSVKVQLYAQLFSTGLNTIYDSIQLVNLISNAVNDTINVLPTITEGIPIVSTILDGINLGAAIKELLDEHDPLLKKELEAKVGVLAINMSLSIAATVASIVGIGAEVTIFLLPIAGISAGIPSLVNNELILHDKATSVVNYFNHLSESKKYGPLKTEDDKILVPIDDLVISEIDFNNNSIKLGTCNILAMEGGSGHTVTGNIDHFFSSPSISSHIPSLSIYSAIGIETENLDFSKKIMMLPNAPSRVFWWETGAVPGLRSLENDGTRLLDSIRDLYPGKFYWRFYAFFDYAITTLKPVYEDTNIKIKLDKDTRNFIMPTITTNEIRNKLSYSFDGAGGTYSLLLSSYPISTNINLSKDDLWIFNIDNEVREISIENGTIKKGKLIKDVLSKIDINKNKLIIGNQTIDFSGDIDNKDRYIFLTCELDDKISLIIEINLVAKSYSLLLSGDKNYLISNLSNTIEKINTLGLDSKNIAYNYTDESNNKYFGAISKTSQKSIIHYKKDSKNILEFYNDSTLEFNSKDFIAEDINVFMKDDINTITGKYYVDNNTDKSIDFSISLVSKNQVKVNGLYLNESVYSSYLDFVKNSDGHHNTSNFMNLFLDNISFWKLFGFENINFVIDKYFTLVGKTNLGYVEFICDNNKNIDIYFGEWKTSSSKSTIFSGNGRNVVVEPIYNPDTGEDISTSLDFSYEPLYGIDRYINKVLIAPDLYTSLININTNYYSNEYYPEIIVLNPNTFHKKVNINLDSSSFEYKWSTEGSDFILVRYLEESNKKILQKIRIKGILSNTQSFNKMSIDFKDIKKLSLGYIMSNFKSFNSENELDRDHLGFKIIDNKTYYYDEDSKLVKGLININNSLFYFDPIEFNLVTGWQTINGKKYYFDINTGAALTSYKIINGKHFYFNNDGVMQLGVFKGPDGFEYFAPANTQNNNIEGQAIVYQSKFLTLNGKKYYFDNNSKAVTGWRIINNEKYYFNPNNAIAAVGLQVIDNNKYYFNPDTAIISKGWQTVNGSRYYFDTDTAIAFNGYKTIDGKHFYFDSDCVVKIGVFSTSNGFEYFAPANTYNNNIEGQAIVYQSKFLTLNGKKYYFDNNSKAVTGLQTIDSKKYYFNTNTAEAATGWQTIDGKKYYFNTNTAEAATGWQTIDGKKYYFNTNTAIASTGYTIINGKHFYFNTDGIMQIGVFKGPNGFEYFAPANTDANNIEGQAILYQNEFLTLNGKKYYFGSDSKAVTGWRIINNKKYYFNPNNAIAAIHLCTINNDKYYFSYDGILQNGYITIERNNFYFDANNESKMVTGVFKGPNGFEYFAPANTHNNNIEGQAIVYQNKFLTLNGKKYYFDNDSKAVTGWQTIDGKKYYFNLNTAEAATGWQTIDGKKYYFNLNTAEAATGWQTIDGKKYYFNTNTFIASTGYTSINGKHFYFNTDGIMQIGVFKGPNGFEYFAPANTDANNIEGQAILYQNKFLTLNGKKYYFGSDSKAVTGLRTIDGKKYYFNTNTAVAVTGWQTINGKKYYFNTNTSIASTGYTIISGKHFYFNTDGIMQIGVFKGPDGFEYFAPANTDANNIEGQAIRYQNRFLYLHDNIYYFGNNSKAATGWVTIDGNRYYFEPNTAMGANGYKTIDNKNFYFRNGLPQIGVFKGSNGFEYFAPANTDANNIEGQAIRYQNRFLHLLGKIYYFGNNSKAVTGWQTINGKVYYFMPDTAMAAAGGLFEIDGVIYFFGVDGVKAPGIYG
# Assay: pull-down
binder,measurement,value
B1,binding result,binds
